Test results taken from a protein production outcome set (Wang et al. 2014).

Experiment: label from the status in PepcDB records
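Note: failed if final PepcDB status was selected cloned or expressed and not failed if soluble or beyond.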

Row | Sequence | protein production
1 | MSLEEWIKADSLEKADEYHKRYNYAVTNPVRRKILRMLDKGRSEEEIMQTLSLSKKQLDYHLKVLEAGFCIERVGERWVVTDAGKIVDKIRG | not failed
2 | MSLEGFICKFNRKRRLYIENIMQVRVTGILIEDEKVLLVKQKVANRDWSLPGGRVENGETLEEAMIREMREETGLEVKIKKLLYVCDKPDASPSLLHITFLLERIEGEITLPSNEFDHNPIHDVQMVPINELSYYGFSETFINLISGGLANAGSYQGLKRNIGEGHHHHHH | not failed
3 | MSLEKLDTNTFEQLIYDEGKACLVMFSRKNCHVCQKVTPVLEELRLNYEESFGFYYVDVEEEKTLFQRFSLKGVPQILYFKDGEYKGKMAGDVEDDEVEQMIADVLED | not failed
4 | MSLELPFSNQSIIPAAHNQKDMEKILELDLTYMVMLETHVAQLKALVKYAQAGGKKVLLHADLVNGLKNDDYAIDFLCTEICPDGIISTRGNAIMKAKQHKMLAIQRLFMIDSSAYNKGVALIQKVQPDCIELLPGIIPEQVQKMTQKLHIPVIAGGLIETSEQVNQVIASGAIAVTTSNKHLWEGHHHHHH | not failed
5 | MSLERFAPIKVERCKDIQKELKKAAAENKLQTEDLWFEILKTSIFIKNSAKDDFSEAFGGELQQLEEEEYYEKKELTLYQTHDIKIKSNAYKRFFEVKVDENLSAIEIILDECFIVLDTEEHYQEMFAYIKECLAFQGVVFRHFSQMYENLKTELRKYQKEAQNKRFILYTSSTFIPNIEEQSHFLLEEEYLPTHTIFLSDQEESFVKENYYIAKENQKVACVNCPKQGRDGRNLKGLYIELPKVAHSPTPIGHDKNAFEEREENNALVYYSKALQGVKMEKGRLVSKQNFIFKNGIKSIETPNLLGGLESGLALEIQARDELSDAIDSNLILEASVINIKGNVGKNVILVAKEITIEGQIHPESYVYANKARITNHKGVCYAKELECKYLERAKVYANSVKVEASAGSVVYAKEIALEKLKSDNKLYFSKQCWIDEVDGNGNRFIFYAFGGRENQEELKAAKQKLNALGLKSKKIIAQHQSLNHLVKNHQAIMEKLKNATEEIKRSLMQQESVKDAYSEFMFALKRLKILKAQMLELQKINNECYAKLISIENSFQHASITTKNPFKQENIVIYHRNYPKVSNSTAMLSHNESVNVIYEDHKIKKVPKSAIKG | failed
6 | MSLETRARNSTRPASGLIDWEQARQAALRLSQWEQAPVDNRAFRREQYARMVALSEPLIADYLGVRLPEPVSRIFVFDRREWLEANIVSFSQLFRPIEEMYEKNGGGRGALGVLMNDVSSKLLGVQIGGLLGYLAQRVLGQYDLSLLSAEATGGSLYFVEPNIARVQQQLGLSDEDFRLWITLHEMTHAFEFEAYPWVRTYFRELLEQNFALVSGQMLSSGNSLVDMLMRLLQGIGSGQHWIETVLTPEQRAVFDRIQALMSLIEGYGNHVMNAVGRRLLPSFNQIEQQIAQRQRQRTMLDQMVFRLTGLDLKLAQYQQGEAFVNAVVAARGIQFASRVWERPENLPSMDEIRNPGQWIVRMDREGHHHHHH | not failed
7 | MSLFAELTASVNAVRPGRTRMRNYDMPLIVAASTLLLLGLLMVYSASIALADGPRYASYGRYYFVIRHGLFLTAGLLAAAVVLSVPIRVWQRLAVPLFMFALILLVAVLIPGIGREVNGAHRWIPLGPLNFQPSELMKLAALLYAADYTVRKQEHMQAFSRGFLPMACALGGVGMLLLLEPDLGAFMVIVAIAIGILFLGGINGKYFSSLLAVLVGTFLMLIWVSPWRRARLFAYLDPWNEANAYGSAYQLSHSLIALGRGEWFGVGLGASVEKLHYLPEAHTDFLMAVVGEELGFAGVMLVITLFAIIVYRGFDIGRQAIAMERTFAGLVAHGVAMWVGVQAFINMGVCLGLLPTKGLTLPLMSYGGSGIVMNLCALAMLIRVDVENRVMMRGGRV | failed
8 | MSLFIYEVLIRLFMTFILSLLLTPLVKLLAFRIGAYDAPGERRINTKNMPTAGGLAIYIAFASSCLLIFRSIIPQDYIWPIILAGGMVVLTGLIDDIKEITPMKKTIGILLAALVIYFVAGIRIDFVTLPVVGMIDLRWFSLPLTLLWILAITNAVNLIDGLDGLASGVSIIGLTTIGITGYFFLHAKTVYIPIVIFILVASIAGFFPYNFYPAKIFLGDTGALFLGFMIAVMSLQGLKNATFITVITPMVILGVPITDTVYAIIRRLLNKKPISSADKMHLHHRLLSLGFTHKGAVMTIYALALVFSFVSLLFSYSSTVASILLIVFCLIGLELFIELIGLVGEGHQPLMYLLRILGNREYRQEQMKKRLGKHSKRK | failed
